Reference: patent publication US20140357577A1, “HIV Membrane Fusion Inhibitors” (priority 2011, published 2014)
Starred links: 1 amine or outer side, 2 acyl side, 3 side chain; linkers in the order of their positions; H or OH if unused. Non-standard residues stand in square brackets, D forms with d. *: point of attachment. Palmitoyl = CCCCCCCCCCCCCCCC(=O)*; Suc = O=C(CCC(=O)[*:2])[*:1]; Pentanoyl = CCCCC(=O)*

B1: peptide 15 (peptide)
peptide: Pentanoyl-ANYLALIEALIRAAQEQQEKNEAALR-NH2
SMILES: CCCCC(=O)N[C@@H](C)C(=O)N[C@@H](CC(N)=O)C(=O)N[C@@H](Cc1ccc(O)cc1)C(=O)N[C@@H](CC(C)C)C(=O)N[C@@H](C)C(=O)N[C@@H](CC(C)C)C(=O)N[C@H](C(=O)N[C@@H](CCC(=O)O)C(=O)N[C@@H](C)C(=O)N[C@@H](CC(C)C)C(=O)N[C@H](C(=O)N[C@@H](CCCNC(=N)N)C(=O)N[C@@H](C)C(=O)N[C@@H](C)C(=O)N[C@@H](CCC(N)=O)C(=O)N[C@@H](CCC(=O)O)C(=O)N[C@@H](CCC(N)=O)C(=O)N[C@@H](CCC(N)=O)C(=O)N[C@@H](CCC(=O)O)C(=O)N[C@@H](CCCCN)C(=O)N[C@@H](CC(N)=O)C(=O)N[C@@H](CCC(=O)O)C(=O)N[C@@H](C)C(=O)N[C@@H](C)C(=O)N[C@@H](CC(C)C)C(=O)N[C@@H](CCCNC(=N)N)C(N)=O)[C@@H](C)CC)[C@@H](C)CC
B2: peptide 14 (peptide)
peptide: Pentanoyl-ANYAALIEALIRAAQEQQEKNEAALR-NH2
SMILES: CCCCC(=O)N[C@@H](C)C(=O)N[C@@H](CC(N)=O)C(=O)N[C@@H](Cc1ccc(O)cc1)C(=O)N[C@@H](C)C(=O)N[C@@H](C)C(=O)N[C@@H](CC(C)C)C(=O)N[C@H](C(=O)N[C@@H](CCC(=O)O)C(=O)N[C@@H](C)C(=O)N[C@@H](CC(C)C)C(=O)N[C@H](C(=O)N[C@@H](CCCNC(=N)N)C(=O)N[C@@H](C)C(=O)N[C@@H](C)C(=O)N[C@@H](CCC(N)=O)C(=O)N[C@@H](CCC(=O)O)C(=O)N[C@@H](CCC(N)=O)C(=O)N[C@@H](CCC(N)=O)C(=O)N[C@@H](CCC(=O)O)C(=O)N[C@@H](CCCCN)C(=O)N[C@@H](CC(N)=O)C(=O)N[C@@H](CCC(=O)O)C(=O)N[C@@H](C)C(=O)N[C@@H](C)C(=O)N[C@@H](CC(C)C)C(=O)N[C@@H](CCCNC(=N)N)C(N)=O)[C@@H](C)CC)[C@@H](C)CC
B3: peptide 13 (peptide)
peptide: Suc-ANYLALIEALIRAAQEQQEKNEAALK(Palmitoyl)-NH2
SMILES: CCCCCCCCCCCCCCCC(=O)NCCCC[C@H](NC(=O)[C@H](CC(C)C)NC(=O)[C@H](C)NC(=O)[C@H](C)NC(=O)[C@H](CCC(=O)O)NC(=O)[C@H](CC(N)=O)NC(=O)[C@H](CCCCN)NC(=O)[C@H](CCC(=O)O)NC(=O)[C@H](CCC(N)=O)NC(=O)[C@H](CCC(N)=O)NC(=O)[C@H](CCC(=O)O)NC(=O)[C@H](CCC(N)=O)NC(=O)[C@H](C)NC(=O)[C@H](C)NC(=O)[C@H](CCCNC(=N)N)NC(=O)[C@@H](NC(=O)[C@H](CC(C)C)NC(=O)[C@H](C)NC(=O)[C@H](CCC(=O)O)NC(=O)[C@@H](NC(=O)[C@H](CC(C)C)NC(=O)[C@H](C)NC(=O)[C@H](CC(C)C)NC(=O)[C@H](Cc1ccc(O)cc1)NC(=O)[C@H](CC(N)=O)NC(=O)[C@H](C)NC(=O)CCC(=O)O)[C@@H](C)CC)[C@@H](C)CC)C(N)=O
B4: peptide 12 (peptide)
peptide: Suc-[dA]NYLALIEALIRAAQEQQEKNEAAL[dR]-NH2
SMILES: CC[C@H](C)[C@H](NC(=O)[C@H](CC(C)C)NC(=O)[C@H](C)NC(=O)[C@H](CCC(=O)O)NC(=O)[C@@H](NC(=O)[C@H](CC(C)C)NC(=O)[C@H](C)NC(=O)[C@H](CC(C)C)NC(=O)[C@H](Cc1ccc(O)cc1)NC(=O)[C@H](CC(N)=O)NC(=O)[C@@H](C)NC(=O)CCC(=O)O)[C@@H](C)CC)C(=O)N[C@@H](CCCNC(=N)N)C(=O)N[C@@H](C)C(=O)N[C@@H](C)C(=O)N[C@@H](CCC(N)=O)C(=O)N[C@@H](CCC(=O)O)C(=O)N[C@@H](CCC(N)=O)C(=O)N[C@@H](CCC(N)=O)C(=O)N[C@@H](CCC(=O)O)C(=O)N[C@@H](CCCCN)C(=O)N[C@@H](CC(N)=O)C(=O)N[C@@H](CCC(=O)O)C(=O)N[C@@H](C)C(=O)N[C@@H](C)C(=O)N[C@@H](CC(C)C)C(=O)N[C@H](CCCNC(=N)N)C(N)=O

Target: gp41 of HIV-1 strain HXB2D with mutation V38A (HIV-1 strain HXB2D, UniProt P04578)
Test: cell-based or functional assay

Point of comparison: B3, “fold change in EC50, HIV-HXB2D V38A mutant” value 2 fold. Against it:
- B1 — higher, 18 fold
- B2 — higher, 46 fold
- B4 — higher, 51 fold
